Assay results reported in patent US20110081339A1 (Amgen, published 2011).
Changes are numbered by the printed parent chain. Like-named read-outs stand apart in the source and are kept apart here.

B1: IL-17RA human mAb having the heavy and light chain variable sequences (AMH14/AML14) (antibody, IgG2, V domains shown)
VH: QVQLVQSGAEVKKPGASVKVSCKASGYTFTRYGISWVRQAPGQGLEWMGWISTYSGNTNYAQKLQGRVTMTTDTSTSTAYMELRSLRSDDTAVYYCARRQLYFDYWGQGTLVTVSS
VL: EIVMTQSPATLSVSPGERATLSCRASQSVSSNLAWFQQKPGQAPRPLIYDASTRATGVPARFSGSGSGTDFTLTISSLQSEDFAVYYCQQYDNWPLTFGGGTKVEIK
notes: Fully human, from IgG2 XenoMouse mice; Only variable domains are tied to it in the description; also called AM-14; AML14/AMH14
B2: IL-17RA human mAb (AMH22/AML22) (antibody, IgG2, V domains shown)
VH: B1 VH with T53A
VL: B1 VL with A19V, T56A, V58I
notes: Fully human, from IgG2 XenoMouse mice; also called AM-22; AML22/AMH22
B3: AMH14/AML14 (hybridoma) (antibody, V domains shown)
VH: B1 VH
VL: B1 VL
B4: IL-17RA mAb (AMH15/AML15) (antibody, V domains shown)
VH: QVQLVESGGGVVQPGRSLRLSCAASGFTFSSYGMQWVRQAPGKGLEWVAVIWYDGNKKYYADSVKGRFTISRDNSKNTLYLQMNSLRAEDTAVYYCARGRVRDYYYGMDVWGQGTTVTVSS
VL: B1 VL with A19V, T56A, V58I
notes: also called AM-15; AML15/AMH15
B5: IL-17RA mAb (AMH1/AML1) (antibody, V domains shown)
VH: QVQLQESGPGLVKPSETLSLTCTVSGGSISNYYWNWIRQSPGKGLEWIGDIYYSGSTNYNPSLKSRVTISVDTSKNQFSLKLSSVTTADTAVYYCARDGELANYYGSGSYQFYYYYGMDVWGQGTTVTVSS
VL: DILMTQSPSSLSASVGDRVTITCRASQGIRNDLGWYQQKPGKAPKRLIYAASSLQSGVPSRFSGSGSGTEFTLTISSLQPEDFATYYCLQHNSNPFTFGPGTKVDIK
notes: also called AM-1; AML1/AMH1
B6: IL-17RA mAb (AMH13/AML13) (antibody, IgG2, V domains shown)
VH: B4 VH
VL: DIVMTQTPLSLSVTPGQPASIACKSSQSLLHSDGKTYLYWYLQKPGQPPQLLIYEVSTRFSGVPDRFSGSGSGTDFTLKISRVEAEDVGVFYCMQSIQLPLTFGGGTKVEIK
notes: From IgG2 XenoMouse mice; also called AM-13; AML13/AMH13
B7: IL-17RA mAb (AMH12/AML12) (antibody, IgG2, V domains shown)
VH: B1 VH with F29L, R31S, S55K, R99K, Y102V
VL: B1 VL with V29I, N32S, F36Y, P46L, D50G, V58I, D70E, D82N
notes: From IgG2 XenoMouse mice; also called AM-12; AML12/AMH12
B8: IL-17RA mAb (AMH16/AML16) (antibody, IgG2, V domains shown)
VH: B1 VH with R31S, T53A, S55N, N59K, A79V, R99K, Y102V
VL: EIVMTQSPATLSVSPGERATLSCRASQSISTSLAWYQQKPGQAPRLLIYGTSTRATGIPARFSGSGSGTEFTLTISSLQSEDFAVYFCQQYDIWPLTFGGGTKVEIK
notes: From IgG2 XenoMouse mice; also called AM-16; AML16/AMH16
B9: IL-17RA mAb (AMH17/AML17) (antibody, V domains shown)
VH: B1 VH with S17A, S25T, F29L, R31S, T53A, N59K, R99K, Y102V
VL: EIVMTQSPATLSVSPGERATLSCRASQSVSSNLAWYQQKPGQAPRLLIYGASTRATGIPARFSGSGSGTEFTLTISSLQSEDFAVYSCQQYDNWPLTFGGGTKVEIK
notes: From IgG2 XenoMouse mice; also called AM-17; AML17/AMH17
B10: IL-17RA mAb (AMH21/AML21) (antibody, IgG2, V domains shown)
VH: EVQLVESGGGSVQPGGSLRLSCAASGFTFSSYSMNWVRQAPGKGLEWVSIISSRSSIIHYADSVKGRFTISRDNAKNSLYLQMNSLRDEDTAVYYCARPKVGGGMDVWGQGTTVTVSS
VL: DIQMTQSPSSLSASVGDRVTITCRASQGISNYLAWYQQKPGKFPELLIYAASTLQSGVPSRFSGSGSGTDFTLTISSLQPEDVATYYCQKYNRAPFTFGPGTKVDIK
notes: From IgG2 XenoMouse mice; also called AM-21; AML21/AMH21
B11: IL-17RA mAb (AMH11/AML11) (antibody, V domains shown)
VH: QVQLVESGGGVVQPGRSLRLSCATSGITFSSYGMHWVRQAPGKGLEWVAVIWYDGSNKYYADSVKGRFTISRDNSKNTLYLQMNSLRAEDTAVYYCARDTKDYWGQGTLVTVSS
VL: EIVMTQSPATLSVSPGERATLSCRASQSVSSNLAWYQQKPGQAPRLLIYGASTRAAGIPARFSGGGSGTAFTLTISNLQSEDFAVYYCQHYINWPKWTFGQGTKVDIK
notes: also called AM-11; AML11/AMH11
B12: IL-17RA mAb (AMH5/AML5) (antibody, V domains shown)
VH: QVQLQESGPGLVKPSETLPLTCTVSGGSIRSYYWSWIRQPAGKGLEWIGRIYRSGNTIYNPSLKSRVTMSIDTSKNQFSLTLSSVTAADTAVYYCARENYSESSGLYYYYGMDVWGQGTTVTVSS
VL: B5 VL with L3Q, L54F, E70G, N94Y, F96P, P100Q, D105E
notes: also called AM-5; AML5/AMH5

Columns and labels:
[1] = biological target: cynomolgus IL-17RA expressed on cells (cynomolgus); assay: cell-based or functional assay
[2] = biological target: T1, cynomolgus IL-17RA expressed on cells (cynomolgus); assay: FACS; inhibition of biotin-huIL-17A binding; MFI
T1 construct: whole, on cells; CHO cell line over-expressing cynomolgus IL-17RA (FACS); also called cyno IL-17RA; CHO-cynoIL-17RA

[3] = biological target: T1, cynomolgus IL-17RA expressed on cells; assay: FACS; inhibition of biotin-huIL-17A binding; MFI; remark: listed apart in the source
[4] = biological target: Human IL-17RA full-length expressed on the surface of cells (human, UniProt Q96F46 33-866); assay: cell-based or functional assay
[5] = biological target: T1, cynomolgus IL-17RA expressed on cells; assay: FACS; inhibition of biotin-huIL-17A binding; MFI; remark: listed apart in the source
Excerpt: The anti-IL-17RA antibodies were characterized. […] Anti-IL-17RA non-clonal hybridomas were selected for sub-cloning based on their performance in the CHO-IL-17RA FACS assay and HFF bioassay.

Row | MFI [3] | MFI [5] | other results | Binder
1 |  |  | IC50, cynomolgous IL-17A-induced IL-6 production from JTC-12 cells [1]: ~1.2 nM; MFI [2]: 10 | B1
2 | 18 |  |  | B2
3 |  |  | IC50 (read off the curve) (IL-17A-induced GRO-alpha production from HFF cells; blocked ligand m20) [4]: ~0.01 µg/mL | B3
4 |  |  | MFI [2]: 6 | B4
5 | 11 |  |  | B5
6 |  | 6 |  | B6
7 |  | 6 |  | B7
8 |  | 6 |  | B8
9 |  | 8 |  | B9
10 |  |  | MFI [2]: 6 | B10
11 | 9 |  |  | B11
12 | 9 |  |  | B12
